From paper PMC2756588

T1: Boi2, P39969
T1 sequence (P39969 32-116, looked up): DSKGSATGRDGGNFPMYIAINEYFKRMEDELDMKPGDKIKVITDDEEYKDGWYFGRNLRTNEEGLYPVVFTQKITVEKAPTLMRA

T2: Cdc25, P04821
T2 sequence (P04821 50-136, looked up): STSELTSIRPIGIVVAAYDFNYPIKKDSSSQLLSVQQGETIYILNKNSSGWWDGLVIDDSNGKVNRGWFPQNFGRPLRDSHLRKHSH

T3: Sla1-2, P32790
T3 sequence (P32790 60-140, looked up): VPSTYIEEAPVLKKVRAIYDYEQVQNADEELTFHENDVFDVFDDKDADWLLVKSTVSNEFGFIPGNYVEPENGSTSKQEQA

T4: Bzz1-1, P38822
T4 sequence (P38822 478-572, looked up): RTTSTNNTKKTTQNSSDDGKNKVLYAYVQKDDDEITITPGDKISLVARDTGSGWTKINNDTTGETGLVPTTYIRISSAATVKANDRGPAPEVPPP

T5: Cyk3, Q07533
T5 sequence (Q07533 1-83, looked up): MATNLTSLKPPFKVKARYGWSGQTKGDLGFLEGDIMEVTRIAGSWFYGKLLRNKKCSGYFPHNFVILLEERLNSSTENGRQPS

T6: Hse1, P38753
T6 sequence (P38753 208-285, looked up): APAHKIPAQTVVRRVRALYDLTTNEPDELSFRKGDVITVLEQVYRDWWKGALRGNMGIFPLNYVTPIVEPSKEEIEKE

T7: Pex13, P80667
T7 sequence (P80667 295-386, looked up): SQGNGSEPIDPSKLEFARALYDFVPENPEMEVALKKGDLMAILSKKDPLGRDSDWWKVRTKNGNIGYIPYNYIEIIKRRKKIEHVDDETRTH

T8: Nbp2, Q12163
T8 sequence (Q12163 103-180, looked up): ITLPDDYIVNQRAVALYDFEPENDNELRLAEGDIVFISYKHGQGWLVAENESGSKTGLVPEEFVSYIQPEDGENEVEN

T9: Lsb3, P43603
T9 sequence (P43603 385-451, looked up): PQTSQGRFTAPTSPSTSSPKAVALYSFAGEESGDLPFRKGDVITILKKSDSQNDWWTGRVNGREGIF

T10: Boi1, P38041
T10 sequence (P38041 1-86, looked up): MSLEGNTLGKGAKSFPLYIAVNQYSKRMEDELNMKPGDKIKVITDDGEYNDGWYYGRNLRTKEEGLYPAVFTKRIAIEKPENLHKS

T11: Abp1, P15891
T11 sequence (P15891 535-592, looked up): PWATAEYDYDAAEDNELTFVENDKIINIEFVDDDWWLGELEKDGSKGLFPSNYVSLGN

T12: Sla1-3, P32790
T12 sequence (P32790 344-424, looked up): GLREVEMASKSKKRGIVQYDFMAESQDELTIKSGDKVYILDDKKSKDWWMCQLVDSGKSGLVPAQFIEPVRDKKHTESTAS

T13: Lsb1, P53281
T13 sequence (P53281 45-122, looked up): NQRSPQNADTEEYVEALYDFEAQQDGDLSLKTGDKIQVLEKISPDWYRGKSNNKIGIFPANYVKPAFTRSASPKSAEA

T14: Pin3, Q06449
T14 sequence (Q06449 53-122, looked up): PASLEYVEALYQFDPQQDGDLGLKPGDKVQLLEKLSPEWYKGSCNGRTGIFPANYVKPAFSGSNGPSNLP

T15: Bzz1-2, P38822
T15 sequence (P38822 568-633, looked up): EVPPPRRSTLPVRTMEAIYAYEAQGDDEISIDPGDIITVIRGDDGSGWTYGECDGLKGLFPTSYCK

T16: Bud14, P27637
T16 sequence (P27637 247-328, looked up): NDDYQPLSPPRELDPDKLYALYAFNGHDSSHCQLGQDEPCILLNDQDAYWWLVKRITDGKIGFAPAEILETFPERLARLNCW

T17: Fus1, P11710
T17 sequence (P11710 432-512, looked up): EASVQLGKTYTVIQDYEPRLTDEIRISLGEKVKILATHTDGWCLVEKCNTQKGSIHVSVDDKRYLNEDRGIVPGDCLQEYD

T18: Bbc1, P47068
T18 sequence (P47068 1-78, looked up): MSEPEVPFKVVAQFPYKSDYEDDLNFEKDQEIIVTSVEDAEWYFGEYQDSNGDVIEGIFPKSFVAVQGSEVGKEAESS

T19: Lsb4, P32793
T19 sequence (P32793 402-468, looked up): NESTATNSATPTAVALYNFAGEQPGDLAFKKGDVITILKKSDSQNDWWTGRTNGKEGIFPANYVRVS

T20: Hof1, Q05080
T20 sequence (Q05080 590-669, looked up): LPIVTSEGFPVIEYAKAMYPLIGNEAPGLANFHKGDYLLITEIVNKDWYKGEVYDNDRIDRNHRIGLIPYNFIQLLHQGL

T21: Myo5, Q04439
T21 sequence (Q04439 1072-1160, looked up): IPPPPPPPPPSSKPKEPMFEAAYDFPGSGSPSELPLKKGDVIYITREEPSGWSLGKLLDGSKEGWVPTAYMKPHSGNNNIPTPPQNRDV


Key:
Test in all cases: SPOT array
[1] = molecular target: T1, Boi2, P39969; conditions: median of control spots 1161
[2] = molecular target: T2, Cdc25, P04821; conditions: median of control spots 969
[3] = molecular target: T3, Sla1-2, P32790; conditions: median of control spots 712
[4] = molecular target: T4, Bzz1-1, P38822; conditions: median of control spots 4446
[5] = molecular target: T5, Cyk3, Q07533; conditions: median of control spots 1451
[6] = molecular target: Bem1-2, P29366; conditions: median of control spots 4347
[7] = molecular target: T6, Hse1, P38753; conditions: median of control spots 1727
[8] = molecular target: Myo3, P36006; conditions: median of control spots 468
[9] = molecular target: T7, Pex13, P80667; conditions: median of control spots 1341
[10] = molecular target: Bem1-1, P29366; conditions: median of control spots 4282
[11] = molecular target: T8, Nbp2, Q12163; conditions: median of control spots 357
[12] = molecular target: T9, Lsb3, P43603; conditions: median of control spots 406
[13] = molecular target: T10, Boi1, P38041; conditions: median of control spots 1162
[14] = molecular target: Rvs167, P39743; conditions: median of control spots 2707
[15] = molecular target: T11, Abp1, P15891; conditions: median of control spots 935
[16] = molecular target: T12, Sla1-3, P32790; conditions: median of control spots 5475
[17] = molecular target: T13, Lsb1, P53281; conditions: median of control spots 388
[18] = molecular target: T14, Pin3, Q06449; conditions: median of control spots 2171
[19] = molecular target: GST; conditions: median of control spots 978
[20] = molecular target: T15, Bzz1-2, P38822; conditions: median of control spots 4538
[21] = molecular target: T16, Bud14, P27637; conditions: median of control spots 956
[22] = molecular target: Sho1, P40073; conditions: median of control spots 1148
[23] = molecular target: T17, Fus1, P11710; conditions: median of control spots 1200
[24] = molecular target: T18, Bbc1, P47068; conditions: median of control spots 796
[25] = molecular target: T19, Lsb4, P32793; conditions: median of control spots 397
[26] = molecular target: T20, Hof1, Q05080; conditions: median of control spots 4086
[27] = molecular target: T21, Myo5, Q04439; conditions: median of control spots 471

Chain of Sho1, P40073 (P40073 287-367): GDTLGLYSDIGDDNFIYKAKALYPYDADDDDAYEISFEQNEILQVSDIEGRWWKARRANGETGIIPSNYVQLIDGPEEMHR
Chain of Bem1-1, P29366 (P29366 55-141): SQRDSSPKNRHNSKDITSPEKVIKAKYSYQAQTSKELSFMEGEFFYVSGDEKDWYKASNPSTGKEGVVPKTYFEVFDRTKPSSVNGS
Chain of Bem1-2, P29366 (P29366 139-227): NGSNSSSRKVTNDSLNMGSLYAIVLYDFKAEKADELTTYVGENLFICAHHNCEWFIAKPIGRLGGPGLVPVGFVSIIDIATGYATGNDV
Chain of Rvs167, P39743 (P39743 419-482): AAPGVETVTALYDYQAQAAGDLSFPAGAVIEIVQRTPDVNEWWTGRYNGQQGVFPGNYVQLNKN

SPOT intensity [1] | SPOT intensity [2] | SPOT intensity [3] | SPOT intensity [4] | SPOT intensity [5] | SPOT intensity [6] | SPOT intensity [7] | SPOT intensity [8] | SPOT intensity [9] | SPOT intensity [10] | SPOT intensity [11] | SPOT intensity [12] | SPOT intensity [13] | SPOT intensity [14] | SPOT intensity [15] | SPOT intensity [16] | SPOT intensity [17] | SPOT intensity [18] | SPOT intensity [19] | SPOT intensity [20] | Binder | further results
1 | 0 | 3 | 6 | 1 | 0 | 0 | 0 | 55 | 3 | 0 | 0 | 0 | 3630 | 0 | 0 | 0 | 4 | 0 | 20 | SGVRLPAPPPPPRRG | SPOT intensity [21]: 3; SPOT intensity [22]: 0; SPOT intensity [23]: 0; SPOT intensity [24]: 0; SPOT intensity [25]: 0; SPOT intensity [26]: 633; SPOT intensity [27]: 0
0 | 0 | 2 | 7 | 1 | 0 | 0 | 0 | 56 | 0 | 0 | 0 | 1 | 514 | 0 | 0 | 0 | 6 | 1 | 0 | PAPPPPPRASRPTPN | SPOT intensity [21]: 6; SPOT intensity [22]: 0; SPOT intensity [23]: 1; SPOT intensity [24]: 0; SPOT intensity [25]: 0; SPOT intensity [26]: 0; SPOT intensity [27]: 1
1 | 0 | 0 | 31 | 0 | 2 | 1 | 0 | 75 | 0 | 1 | 0 | 0 | 1500 | 0 | 1 | 0 | 8 | 0 | 9 | RLPAPPPPPRRGPAP | SPOT intensity [21]: 3; SPOT intensity [22]: 0; SPOT intensity [23]: 0; SPOT intensity [24]: 0; SPOT intensity [25]: 0; SPOT intensity [26]: 5; SPOT intensity [27]: 0
2 | 0 | 1 | 0 | 0 | 1 | 2 | 0 | 59 | 0 | 0 | 0 | 0 | 151 | 0 | 0 | 0 | 19 | 0 | 2 | LYEAMPPTLPHRDWK | SPOT intensity [21]: 0; SPOT intensity [22]: 0; SPOT intensity [23]: 0; SPOT intensity [24]: 0; SPOT intensity [25]: 1; SPOT intensity [26]: 3; SPOT intensity [27]: 1
1 | 0 | 1 | 762 | 0 | 0 | 0 | 0 | 0 | 3 | 0 | 1 | 0 | 0 | 0 | 0 | 0 | 0 | 0 | 190 | TKHKAPPPPPPTAET | SPOT intensity [21]: 0; SPOT intensity [22]: 0; SPOT intensity [23]: 0; SPOT intensity [24]: 0; SPOT intensity [25]: 0; SPOT intensity [26]: 1; SPOT intensity [27]: 1
0 | 0 | 0 | 45 | 0 | 11 | 10 | 0 | 17 | 3 | 0 | 0 | 0 | 3340 | 0 | 14 | 0 | 17 | 1 | 27 | RRGPAPPPPPRASRP | SPOT intensity [21]: 8; SPOT intensity [22]: 0; SPOT intensity [23]: 0; SPOT intensity [24]: 0; SPOT intensity [25]: 1; SPOT intensity [26]: 2; SPOT intensity [27]: 0
